B1: Androgen receptor, residues 557 to 632; numbered along this chain, P10275 (parent)
chain: QKTCLICGDEASGCHYGALTCGSCKVFFKRAAEGKQKYLCASRNDCTIDKFRRKNCPSCRLRKCYEAGMTLGARKL
B2: FERM and PDZ domain-containing protein 4, residues 75 to 154; numbered along this chain, Q14CM0 (parent)
chain: APRKVEMRRDPVLGFGFVAGSEKPVVVRSVTPGGPSEGKLIPGDQIVMINDEPVSAAPRERVIDLVRSCKESILLTVIQP

Variants of: B1
Assay: abundance fitness (aPCA) (normalised: wild type 0, dead -1); higher = more abundant; growth selection in yeast, the domain comes from the species named
Details: Homo sapiens

Abundance fitness of substitutions, site by site:
F27: G -0.884
I48: G -0.362, N -0.199
L19: G -0.399
A32: P -0.591
H15: T 0.045, E 0.099
L5: F -0.078
A18: Q -0.223
Y16: T -0.445
P57: T -0.111
N44: S -0.076
C4: W -0.964

Variants of: B2
Assay: as above
Details: Homo sapiens

Abundance fitness, by site and new letter:
A1: C 0.003, D -0.046, E -0.329, F -0.199, G -0.157, I 0.122, M -0.227, P -0.734, Q -0.704, S -0.207, T -0.278, V -0.207, W -0.569, Y -0.14
P2: A -0.074, C -0.066, D -0.083, E 0.044, F -0.012, G 0, H 0.023, I 0.019, K -0.051, L -0.015, M 0.023, N -0.003, R -0.01, T 0.007, V -0.049, W -0.119, Y -0.004
R3: C -0.985, D -0.659, E -0.517, F -0.194, G -0.666, H -0.176, I -0.099, K -0.036, L -0.238, M -0.188, N -0.299, P -0.937, Q -0.243, S -0.451, T -0.338, V -0.165, W -0.769, Y -0.197
K4: L -0.068, N -0.218, R 0.114, S -0.084
V5: A -0.219, C -0.556, D -0.976, E -0.192, F -0.085, G -0.997, H -0.349, K -0.749, L -0.154, M -0.192, N -0.778, Q -0.522, R -0.679, S -0.623, T -0.325, Y -0.107
E6: A -0.086, C -0.065, F 0.043, G -0.144, H 0.039, I -0.006, K 0.002, L -0.018, M -0.061, N -0.014, P -0.184, Q -0.03, R -0.029, S -0.016, T -0.009, V -0.091, W -0.047, Y 0.007
M7: A -0.213, C -0.247, D -1.08, E -0.918, F -0.085, G -0.877, H -1.01, I 0.018, K -1, L 0.04, N -1.07, Q -0.937, R -0.967, S -0.535, T -0.36, V -0.034, W -1.02, Y -0.835
R8: A -0.009, C -0.12, D 0.029, E 0.034, F 0.013, G -0.052, H -0.058, I 0.006, L -0.011, M -0.014, N -0.09, P -0.116, Q 0.018, S -0.024, V -0.038, W -0.043, Y -0.059
R9: A -0.066, C -0.19, D -0.792, E -0.382, F -0.031, G -0.402, H -0.227, I -0.142, K -0.031, M -0.149, N -0.157, P -0.086, Q -0.3, S -0.152, T -0.277, V -0.217, W -0.089, Y -0.089
D10: C -0.138, E -0.27, F -0.535, G -0.591, H -0.12, I -0.364, K -0.42, L -0.369, M -0.207, N -0.071, Q -0.32, R -0.455, S -0.099, T -0.38

Reference: the Human Domainome abundance scans (Beltran et al. 2025)
